According to PMC3169630:

Key:
[1] = target: recombinant human Siglec-3 Fc fusion protein (human) (UniProt P20138); assay: SPR; BIAcore 3000, CM5 chip; Siglec-Fc immobilised at high density (12000–20000 RU); gp120 in PBS or HBS-P injected at 20 µL/min; KD from kinetic curve fitting
[2] = target: recombinant human Siglec-7 Fc fusion protein (human) (UniProt Q9Y286); assay: as above
[3] = target: recombinant human Siglec-5 Fc fusion protein (human) (UniProt O15389); assay: as above
[4] = target: recombinant human Siglec-3 Fc fusion protein (human) (UniProt P20138); assay: SPR; BIAcore 3000, CM5 chip; Siglec-Fc immobilised at moderate density (2000–7000 RU; capture with immobilized protein A or amine cross-link); gp120 10–500 nM in PBS or HBS-P injected at 20 µL/min; KD from kinetic curve fitting
[5] = target: recombinant human Siglec-7 Fc fusion protein (human) (UniProt Q9Y286); assay: as above
[6] = target: recombinant human Siglec-1-Fc (four N-terminal Ig domains of hSiglec-1 fused to the Fc regions of human IgG1) (human); assay: as above
[7] = target: recombinant human Siglec-9 Fc fusion protein (human) (UniProt Q9Y336); assay: as above
[8] = target: recombinant human Siglec-5 Fc fusion protein (human) (UniProt O15389); assay: as above

Sequence of UniProt Q9Y336 (Q9Y336 18-348): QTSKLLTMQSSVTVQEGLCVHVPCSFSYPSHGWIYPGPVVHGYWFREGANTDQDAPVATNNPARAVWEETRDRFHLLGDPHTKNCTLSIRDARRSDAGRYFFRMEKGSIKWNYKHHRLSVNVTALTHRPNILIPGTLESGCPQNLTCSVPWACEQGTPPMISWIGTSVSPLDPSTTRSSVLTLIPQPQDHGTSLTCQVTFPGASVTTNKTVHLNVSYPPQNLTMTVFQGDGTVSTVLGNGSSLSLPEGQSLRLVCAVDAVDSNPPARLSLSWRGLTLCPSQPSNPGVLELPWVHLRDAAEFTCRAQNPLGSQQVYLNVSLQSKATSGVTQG
Sequence of UniProt P20138 (P20138 18-259): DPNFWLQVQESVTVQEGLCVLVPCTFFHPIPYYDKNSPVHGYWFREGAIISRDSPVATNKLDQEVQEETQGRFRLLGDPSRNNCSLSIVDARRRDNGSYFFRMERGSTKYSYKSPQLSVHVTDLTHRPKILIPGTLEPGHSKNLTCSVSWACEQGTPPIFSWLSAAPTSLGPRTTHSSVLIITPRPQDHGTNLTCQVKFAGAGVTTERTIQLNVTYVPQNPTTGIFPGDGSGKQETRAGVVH
Sequence of UniProt O15389 (O15389 17-441): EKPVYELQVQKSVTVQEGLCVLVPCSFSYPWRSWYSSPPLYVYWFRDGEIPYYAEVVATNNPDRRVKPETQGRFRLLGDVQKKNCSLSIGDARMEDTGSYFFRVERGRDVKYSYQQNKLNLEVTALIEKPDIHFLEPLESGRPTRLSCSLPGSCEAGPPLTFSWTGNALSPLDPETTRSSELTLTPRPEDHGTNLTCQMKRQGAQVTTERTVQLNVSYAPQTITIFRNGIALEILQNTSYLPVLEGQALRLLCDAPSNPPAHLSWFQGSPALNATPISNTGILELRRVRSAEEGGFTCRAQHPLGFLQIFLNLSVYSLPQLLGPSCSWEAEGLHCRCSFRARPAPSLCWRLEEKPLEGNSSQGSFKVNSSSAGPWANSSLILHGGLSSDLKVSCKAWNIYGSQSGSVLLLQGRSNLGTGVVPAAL
Sequence of UniProt Q9Y286 (Q9Y286 19-353): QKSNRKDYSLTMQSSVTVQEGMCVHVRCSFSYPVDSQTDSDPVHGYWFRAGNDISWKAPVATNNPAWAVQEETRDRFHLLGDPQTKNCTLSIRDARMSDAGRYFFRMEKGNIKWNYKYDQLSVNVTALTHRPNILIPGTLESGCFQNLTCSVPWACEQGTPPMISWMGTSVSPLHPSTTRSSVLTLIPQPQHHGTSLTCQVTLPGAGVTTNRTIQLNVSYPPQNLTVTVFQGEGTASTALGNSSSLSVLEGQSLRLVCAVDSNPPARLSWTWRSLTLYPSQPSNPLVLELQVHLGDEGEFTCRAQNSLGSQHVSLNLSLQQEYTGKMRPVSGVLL

Substance	Kd [1] [nM]	Kd [2] [nM]	Kd [3] [nM]	Kd [4] [nM]	Kd [5] [nM]	Kd [6] [nM]	Kd [7] [nM]	Kd [8] [nM]
recombinant gp120 from the 92UG21-9 HIV-1 isolate (natural protein)	80	50	50	3800	49200	80	50	47100
recombinant gp120 from the 92US715 HIV-1 isolate (natural protein)	8	40	20	57800	53400	130	23	9400
recombinant gp120 from the 93MW959 HIV-1 isolate (natural protein)	12	20	15					
recombinant gp120 from the 93UG037 HIV-1 isolate (monomeric) (natural protein)	51	94	54		9900	6300	100	20300
recombinant gp120 from the SIVsmm PBj1.9 isolate (natural protein)	180	19	14	54500	35400	120	270	50500
trimeric gp120 from the 93UG037 strain fused with a trimerization domain from T4 bacteriophage fibritin					2700	900	80	5100
